The results in this text go back to patent publication US20230395193A1 (priority 2020, published 2023).

The labels stand for the following.
B1: M-Q9UI26 (protein, UniProt Q9UI26 1-975, looked up)
Importin-11: MDLNSASTVVLQVLTQATSQDTAVLKPAEEQLKQWETQPGFYSVLLNIFTNHTLDINVRWLAVLYFKHGIDRYWRRVAPHALSEEEKTTLRAGLITNFNEPINQIATQIAVLIAKVARLDCPRQWPELIPTLIESVKVQDDLRQHRALLTFYHVTKTLASKRLAADRKLFYDLASGIYNFACSLWNHHTDTFLQEVSSGNEAAILSSLERTLLSLKVLRKLTVNGFVEPHKNMEVMGFLHGIFERLKQFLECSRSIGTDNVCRDRLEKTIILFTKVLLDFLDQHPFSFTPLIQRSLEFSVSYVFTEVGEGVTFERFIVQCMNLIKMIVKNYAYKPSKNFEDSSPETLEAHKIKMAFFTYPTLTEICRRLVSHYFLLTEEELTMWEEDPEGFTVEETGGDSWKYSLRPCTEVLFIDIFHEYNQTLTPVLLEMMQTLQGPTNVEDMNALLIKDAVYNAVGLAAYELFDSVDFDQWFKNQLLPELQVIHNRYKPLRRRVIWLIGQWISVKFKSDLRPMLYEAICNLLQDQDLVVRIETATTLKLTVDDFEFRTDQFLPYLETMFTLLFQLLQQVTECDTKMHVLHVLSCVIERVNMQIRPYVGCLVQYLPLLWKQSEEHNMLRCAILTTLIHLVQGLGADSKNLYPFLLPVIQLSTDVSQPPHVYLLEDGLELWLVTLENSPCITPELLRIFQNMSPLLELSSENLRTCFKIINGYIFLSSTEFLQTYAVGLCQSFCELLKEITTEGQVQVLKVVENALKVNPILGPQMFQPILPYVFKGIIEGERYPVVMSTYLGVMGRVLLQNTSFFSSLLNEMAHKFNQEMDQLLGNMIEMWVDRMDNITQPERRKLSALALLSLLPSDNSVIQDKFCGIINISVEGLHDVMTEDPETGTYKDCMLMSHLEEPKVTEDEEPPTEQDKRKKMLALKDPVHTVSLQQFIYEKLKAQQEMLGEQGFQSLMETVDTEIVTQLQEFLQGF
modifications: interactor of M protein
B2: M-Q9NVI1 (protein, UniProt Q9NVI1 1-1328, looked up)
Fanconi anemia group I protein: MDQKILSLAAEKTADKLQEFLQTLREGDLTNLLQNQAVKGKVAGALLRAIFKGSPCSEEAGTLRRRKIYTCCIQLVESGDLQKEIASEIIGLLMLEAHHFPGPLLVELANEFISAVREGSLVNGKSLELLPIILTALATKKENLAYGKGVLSGEECKKQLINTLCSGRWDQQYVIQLTSMFKDVPLTAEEVEFVVEKALSMFSKMNLQEIPPLVYQLLVLSSKGSRKSVLEGIIAFFSALDKQHNEEQSGDELLDVVTVPSGELRHVEGTIILHIVFAIKLDYELGRELVKHLKVGQQGDSNNNLSPFSIALLLSVTRIQRFQDQVLDLLKTSVVKSFKDLQLLQGSKFLQNLVPHRSYVSTMILEVVKNSVHSWDHVTQGLVELGFILMDSYGPKKVLDGKTIETSPSLSRMPNQHACKLGANILLETFKIHEMIRQEILEQVLNRVVTRASSPISHFLDLLSNIVMYAPLVLQSCSSKVTEAFDYLSFLPLQTVQRLLKAVQPLLKVSMSMRDCLILVLRKAMFANQLDARKSAVAGFLLLLKNFKVLGSLSSSQCSQSLSVSQVHVDVHSHYNSVANETFCLEIMDSLRRCLSQQADVRLMLYEGFYDVLRRNSQLANSVMQTLLSQLKQFYEPKPDLLPPLKLEACILTQGDKISLQEPLDYLLCCIQHCLAWYKNTVIPLQQGEEEEEEEEAFYEDLDDILESITNRMIKSELEDFELDKSADFSQSTSIGIKNNICAFLVMGVCEVLIEYNFSISSFSKNRFEDILSLFMCYKKLSDILNEKAGKAKTKMANKTSDSLLSMKFVSSLLTALFRDSIQSHQESLSVLRSSNEFMRYAVNVALQKVQQLKETGHVSGPDGQNPEKIFQNLCDITRVLLWRYTSIPTSVEESGKKEKGKSISLLCLEGLQKIFSAVQQFYQPKIQQFLRALDVTDKEGEEREDADVSVTQRTAFQIRQFQRSLLNLLSSQEEDFNSKEALLLVTVLTSLSKLLEPSSPQFVQMLSWTSKICKENSREDALFCKSLMNLLFSLHVSYKSPVILLRDLSQDIHGHLGDIDQDVEVEKTNHFAIVNLRTAAPTVCLLVLSQAEKVLEEVDWLITKLKGQVSQETLSEEASSQATLPNQPVEKAIIMQLGTLLTFFHELVQTALPSGSCVDTLLKDLCKMYTTLTALVRYYLQVCQSSGGIPKNMEKLVKLSGSHLTPLCYSFISYVQNKSKSLNYTGEKKEKPAAVATAMARVLRETKPIPNLIFAIEQYEKFLIHLSKKSKVNLMQHMKLSTSRDFKIKGNILDMVLREDGEDENEEGTASEHGGQNKEPAKKKRKK
modifications: interactor of viral M protein
B3: M-Q9UBU6 (protein, UniProt Q9UBU6 1-413, looked up)
Protein FAM8A1: MAEGPEEARGHPPGQDDGGGDHEPVPSLRGPPTTAVPCPRDDPQAEPQAPGRPTAPGLAAAAAADKLEPPRELRKRGEAASGSGAELQEQAGCEAPEAAAPRERPARLSAREYSRQVHEWLWQSYCGYLTWHSGLAAFPAYCSPQPSPQSFPSGGAAVPQAAAPPPPQLGYYNPFYFLSPGAAGPDPRTAAGISTPAPVAGLGPRAPHVQASVRATPVTRVGSAAPSRSPSETGRQAGREYVIPSLAHRFMAEMVDFFILFFIKATIVLSIMHLSGIKDISKFAMHYIIEEIDEDTSMEDLQKMMVVALIYRLLVCFYEIICIWGAGGATPGKFLLGLRVVTCDTSVLIAPSRVLVIPSSNVSITTSTIRALIKNFSIASFFPAFITLLFFQHNRTAYDIVAGTIVVKRNGVR
modifications: interaction partner of viral M protein
B4: M-Q9UKV5 (protein, UniProt Q9UKV5 1-643, looked up)
E3 ubiquitin-protein ligase …: MPLLFLERFPWPSLRTYTGLSGLALLGTIISAYRALSQPEAGPGEPDQLTASLQPEPPAPARPSAGGPRARDVAQYLLSDSLFVWVLVNTACCVLMLVAKLIQCIVFGPLRVSERQHLKDKFWNFIFYKFIFIFGVLNVQTVEEVVMWCLWFAGLVFLHLMVQLCKDRFEYLSFSPTTPMSSHGRVLSLLVAMLLSCCGLAAVCSITGYTHGMHTLAFMAAESLLVTVRTAHVILRYVIHLWDLNHEGTWEGKGTYVYYTDFVMELTLLSLDLMHHIHMLLFGNIWLSMASLVIFMQLRYLFHEVQRRIRRHKNYLRVVGNMEARFAVATPEELAVNNDDCAICWDSMQAARKLPCGHLFHNSCLRSWLEQDTSCPTCRMSLNIADNNRVREEHQGENLDENLVPVAAAEGRPRLNQHNHFFHFDGSRIASWLPSFSVEVMHTTNILGITQASNSQLNAMAHQIQEMFPQVPYHLVLQDLQLTRSVEITTDNILEGRIQVPFPTQRSDSIRPALNSPVERPSSDQEEGETSAQTERVPLDLSPRLEETLDFGEVEVEPSEVEDFEARGSRFSKSADERQRMLVQRKDELLQQARKRFLNKSSEDDAASESFLPSEGASSDPVTLRRRMLAAAAERRLQKQQTS

The test system of this experiment is SARS-CoV-1, MERS-CoV and SARS-CoV-2 proteins in HEK293T cells. On the set-up: species or system human.
As to B1, the MIST_MERS turned out to be 0.9937, the MIST_SARS1 came to 0.6822, the MIST_SARS2 amounted to 0.6494 and the Saint_MERS is 0.99. The Saint_SARS1 came to 1 and the Saint_SARS2 was 1.

In turn, B2 displayed an MIST_MERS of 0.8133, an MIST_SARS1 of 0.7245, an MIST_SARS2 of 0.5573 and a Saint_MERS of 1. For the same molecule, the Saint_SARS1 is reported as 1 and the Saint_SARS2 was 1.

In turn, B3 returned an MIST_MERS of 0, an MIST_SARS1 of 0.88, an MIST_SARS2 of 0.8045 and a Saint_MERS of 0. The Saint_SARS1 stood at 0.63 and the Saint_SARS2 is given as 0.97.

In turn, B4 had an MIST_MERS of 0.2719, an MIST_SARS1 of 0.9871, an MIST_SARS2 of 0.04352 and a Saint_MERS of 0. The molecule further came in with a Saint_SARS1 of 1 and a Saint_SARS2 of 1.
